Experimental data published in patent US6060451, “Thrombin inhibitors based on the amino acid sequence of hirudin” (The National Research Council of Canada, dated 2000).
Non-standard residues stand in square brackets, D forms with d.

Biological target: human α-thrombin (human, UniProt P00734)
Experiment: inhibition of thrombin-mediated hydrolysis of Tosyl-Gly-Pro-Arg-AMC (fluorogenic amidolytic assay)

Compared with Ac-[dF]PR[(CH2)4CO][NH‑CH2‑CH:CH‑CH2‑CO]DFEPIPL-OH [P183 (SEQ ID NO:5)], Ac-[dF]PR[(CH2)4CO][NH‑CH2‑CH:CH‑CH2‑CO][NH‑CH2‑CH:CH‑CH2‑CO][NH‑CH2‑CH:CH‑CH2‑CO]DFEPIPL-OH [P185 (SEQ ID NO:7)] is 94-fold lower in Ki: 300 nM for the first, 3.2 nM for the second.

Ac-[dF]PR[(CH2)4CO][NH‑CH2‑CH:CH‑CH2‑CO][NH‑CH2‑CH:CH‑CH2‑CO]DFEPIPL-OH [P184 (SEQ ID NO:6) (BCH-1710)] was tested, and the Ki was 3.5 nM.
